# Test results taken from patent publication US11965039B2, “Compstatin analogues and their medical uses” (priority 2018, dated 2024).
# Starred links: 1 amine or outer side, 2 acyl side, 3 side chain; linkers in the order of their positions; H or OH if unused. Positions of bridges follow the written chain, without caps; N, C: chain ends. Non-standard residues stand in square brackets, D forms with d. Groups on a side chain read outwards from the residue. *: point of attachment. X1 = K(γGlu-G-γGlu-17-carboxy-heptadecanoyl), O=C(O)CCCCCCCCCCCCCCCCC(=O)N[C@@H](CCC(=O)NCC(=O)N[C@@H](CCC(=O)NCCCC[C@H](N[*:1])C(=O)[*:2])C(=O)O)C(=O)O; Trp(1-Me) = Cn1cc(C[C@H](N)C(=O)O)c2ccccc21; C18 diacid = O=C(O)CCCCCCCCCCCCCCCCC(=O)*; γGlu = O=C(O)[C@H](CCC(=O)[*:2])N[*:1]; AEEA = NCCOCCOCC(=O)O; Sar = CNCC(=O)O
# B1: Compound 118 (peptide)
# peptide: Ac-SEYCI[Trp(1-Me)]QDWGEHRC[Sar]EGAK([AEEA-γGlu-AEEA-Gly-γGlu-C18 diacid])-NH2
# modifications: disulfide 4-14
# SMILES: CC[C@H](C)[C@@H]1NC(=O)[C@@H](NC(=O)[C@H](Cc2ccc(O)cc2)NC(=O)[C@H](CCC(=O)O)NC(=O)[C@H](CO)NC(C)=O)CSSC[C@@H](C(=O)N(C)CC(=O)N[C@@H](CCC(=O)O)C(=O)NCC(=O)N[C@@H](C)C(=O)N[C@@H](CCCCNC(=O)COCCOCCNC(=O)CC[C@H](NC(=O)COCCOCCNC(=O)CNC(=O)CC[C@H](NC(=O)CCCCCCCCCCCCCCCCC(=O)O)C(=O)O)C(=O)O)C(N)=O)NC(=O)[C@H](CCCNC(=N)N)NC(=O)[C@H](Cc2c[nH]cn2)NC(=O)[C@H](CCC(=O)O)NC(=O)CNC(=O)[C@H](Cc2c[nH]c3ccccc23)NC(=O)[C@H](CC(=O)O)NC(=O)[C@H](CCC(N)=O)NC(=O)[C@H](Cc2cn(C)c3ccccc23)NC1=O
# B2: Compound 122 (peptide)
# peptide: Ac-SEYCI[Trp(1-Me)]QEWGEHRC[Sar]EGAK([AEEA-γGlu-AEEA-Gly-γGlu-C18 diacid])-NH2
# modifications: disulfide 4-14
# SMILES: CC[C@H](C)[C@@H]1NC(=O)[C@@H](NC(=O)[C@H](Cc2ccc(O)cc2)NC(=O)[C@H](CCC(=O)O)NC(=O)[C@H](CO)NC(C)=O)CSSC[C@@H](C(=O)N(C)CC(=O)N[C@@H](CCC(=O)O)C(=O)NCC(=O)N[C@@H](C)C(=O)N[C@@H](CCCCNC(=O)COCCOCCNC(=O)CC[C@H](NC(=O)COCCOCCNC(=O)CNC(=O)CC[C@H](NC(=O)CCCCCCCCCCCCCCCCC(=O)O)C(=O)O)C(=O)O)C(N)=O)NC(=O)[C@H](CCCNC(=N)N)NC(=O)[C@H](Cc2c[nH]cn2)NC(=O)[C@H](CCC(=O)O)NC(=O)CNC(=O)[C@H](Cc2c[nH]c3ccccc23)NC(=O)[C@H](CCC(=O)O)NC(=O)[C@H](CCC(N)=O)NC(=O)[C@H](Cc2cn(C)c3ccccc23)NC1=O
# B3: Compound 119 (peptide)
# peptide: Ac-SEFCI[Trp(1-Me)]QDWGEHRC[Sar]EGAK([AEEA-γGlu-AEEA-Gly-γGlu-C18 diacid])-NH2
# modifications: disulfide 4-14
# SMILES: CC[C@H](C)[C@@H]1NC(=O)[C@@H](NC(=O)[C@H](Cc2ccccc2)NC(=O)[C@H](CCC(=O)O)NC(=O)[C@H](CO)NC(C)=O)CSSC[C@@H](C(=O)N(C)CC(=O)N[C@@H](CCC(=O)O)C(=O)NCC(=O)N[C@@H](C)C(=O)N[C@@H](CCCCNC(=O)COCCOCCNC(=O)CC[C@H](NC(=O)COCCOCCNC(=O)CNC(=O)CC[C@H](NC(=O)CCCCCCCCCCCCCCCCC(=O)O)C(=O)O)C(=O)O)C(N)=O)NC(=O)[C@H](CCCNC(=N)N)NC(=O)[C@H](Cc2c[nH]cn2)NC(=O)[C@H](CCC(=O)O)NC(=O)CNC(=O)[C@H](Cc2c[nH]c3ccccc23)NC(=O)[C@H](CC(=O)O)NC(=O)[C@H](CCC(N)=O)NC(=O)[C@H](Cc2cn(C)c3ccccc23)NC1=O
# notes: also called Compound No 119
# B4: Compound 120 (peptide)
# peptide: Ac-SEFCI[Trp(1-Me)]QEWGEHRC[Sar]EGAK([AEEA-γGlu-AEEA-Gly-γGlu-C18 diacid])-NH2
# modifications: disulfide 4-14
# SMILES: CC[C@H](C)[C@@H]1NC(=O)[C@@H](NC(=O)[C@H](Cc2ccccc2)NC(=O)[C@H](CCC(=O)O)NC(=O)[C@H](CO)NC(C)=O)CSSC[C@@H](C(=O)N(C)CC(=O)N[C@@H](CCC(=O)O)C(=O)NCC(=O)N[C@@H](C)C(=O)N[C@@H](CCCCNC(=O)COCCOCCNC(=O)CC[C@H](NC(=O)COCCOCCNC(=O)CNC(=O)CC[C@H](NC(=O)CCCCCCCCCCCCCCCCC(=O)O)C(=O)O)C(=O)O)C(N)=O)NC(=O)[C@H](CCCNC(=N)N)NC(=O)[C@H](Cc2c[nH]cn2)NC(=O)[C@H](CCC(=O)O)NC(=O)CNC(=O)[C@H](Cc2c[nH]c3ccccc23)NC(=O)[C@H](CCC(=O)O)NC(=O)[C@H](CCC(N)=O)NC(=O)[C@H](Cc2cn(C)c3ccccc23)NC1=O
# B5: Compound 111 (peptide)
# peptide: Ac-EGSAYCI[Trp(1-Me)]QDWGEHRC[Sar]EK[γGlu]K([AEEA-AEEA-γGlu-C18 diacid])-NH2
# modifications: disulfide 6-16
# SMILES: CC[C@H](C)[C@@H]1NC(=O)[C@@H](NC(=O)[C@H](Cc2ccc(O)cc2)NC(=O)[C@H](C)NC(=O)[C@H](CO)NC(=O)CNC(=O)[C@H](CCC(=O)O)NC(C)=O)CSSC[C@@H](C(=O)N(C)CC(=O)N[C@@H](CCC(=O)O)C(=O)N[C@@H](CCCCN)C(=O)N[C@@H](CCC(=O)N[C@@H](CCCCNC(=O)COCCOCCNC(=O)COCCOCCNC(=O)CC[C@H](NC(=O)CCCCCCCCCCCCCCCCC(=O)O)C(=O)O)C(N)=O)C(=O)O)NC(=O)[C@H](CCCNC(=N)N)NC(=O)[C@H](Cc2c[nH]cn2)NC(=O)[C@H](CCC(=O)O)NC(=O)CNC(=O)[C@H](Cc2c[nH]c3ccccc23)NC(=O)[C@H](CC(=O)O)NC(=O)[C@H](CCC(N)=O)NC(=O)[C@H](Cc2cn(C)c3ccccc23)NC1=O
# B6: Compound 121 (peptide)
# peptide: Ac-SEYCI[Trp(1-Me)]QEW[Sar]EHRC[Sar]EK[γGlu]AK([AEEA-γGlu-AEEA-Gly-γGlu-C18 diacid])-NH2
# modifications: disulfide 4-14
# SMILES: CC[C@H](C)[C@@H]1NC(=O)[C@@H](NC(=O)[C@H](Cc2ccc(O)cc2)NC(=O)[C@H](CCC(=O)O)NC(=O)[C@H](CO)NC(C)=O)CSSC[C@@H](C(=O)N(C)CC(=O)N[C@@H](CCC(=O)O)C(=O)N[C@@H](CCCCN)C(=O)N[C@@H](CCC(=O)N[C@@H](C)C(=O)N[C@@H](CCCCNC(=O)COCCOCCNC(=O)CC[C@H](NC(=O)COCCOCCNC(=O)CNC(=O)CC[C@H](NC(=O)CCCCCCCCCCCCCCCCC(=O)O)C(=O)O)C(=O)O)C(N)=O)C(=O)O)NC(=O)[C@H](CCCNC(=N)N)NC(=O)[C@H](Cc2c[nH]cn2)NC(=O)[C@H](CCC(=O)O)NC(=O)CN(C)C(=O)[C@H](Cc2c[nH]c3ccccc23)NC(=O)[C@H](CCC(=O)O)NC(=O)[C@H](CCC(N)=O)NC(=O)[C@H](Cc2cn(C)c3ccccc23)NC1=O
# B7: Compound 126 (peptide)
# peptide: Ac-SEFCI[Trp(1-Me)]QDWGEHRCTEGE-{AEEA-AEEA-X1-NH2}
# modifications: disulfide 4-14
# SMILES: CC[C@H](C)[C@@H]1NC(=O)[C@@H](NC(=O)[C@H](Cc2ccccc2)NC(=O)[C@H](CCC(=O)O)NC(=O)[C@H](CO)NC(C)=O)CSSC[C@@H](C(=O)N[C@H](C(=O)N[C@@H](CCC(=O)O)C(=O)NCC(=O)N[C@@H](CCC(=O)O)C(=O)NCCOCCOCC(=O)NCCOCCOCC(=O)N[C@@H](CCCCNC(=O)CC[C@H](NC(=O)CNC(=O)CC[C@H](NC(=O)CCCCCCCCCCCCCCCCC(=O)O)C(=O)O)C(=O)O)C(N)=O)[C@@H](C)O)NC(=O)[C@H](CCCNC(=N)N)NC(=O)[C@H](Cc2c[nH]cn2)NC(=O)[C@H](CCC(=O)O)NC(=O)CNC(=O)[C@H](Cc2c[nH]c3ccccc23)NC(=O)[C@H](CC(=O)O)NC(=O)[C@H](CCC(N)=O)NC(=O)[C@H](Cc2cn(C)c3ccccc23)NC1=O
# Biological target: T1, Human C3 (Complement tech cat #A113c) (human, UniProt P01024 23-1663)
# T1 construct: Purified protein immobilised by amine coupling in the SPR assay; in the haemolysis assay it is the C3 of diluted human serum; Native C3 consists of a beta and an alpha chain cut from one precursor; also called C3 protein
# T1 sequence (P01024 23-1663 limits assumed): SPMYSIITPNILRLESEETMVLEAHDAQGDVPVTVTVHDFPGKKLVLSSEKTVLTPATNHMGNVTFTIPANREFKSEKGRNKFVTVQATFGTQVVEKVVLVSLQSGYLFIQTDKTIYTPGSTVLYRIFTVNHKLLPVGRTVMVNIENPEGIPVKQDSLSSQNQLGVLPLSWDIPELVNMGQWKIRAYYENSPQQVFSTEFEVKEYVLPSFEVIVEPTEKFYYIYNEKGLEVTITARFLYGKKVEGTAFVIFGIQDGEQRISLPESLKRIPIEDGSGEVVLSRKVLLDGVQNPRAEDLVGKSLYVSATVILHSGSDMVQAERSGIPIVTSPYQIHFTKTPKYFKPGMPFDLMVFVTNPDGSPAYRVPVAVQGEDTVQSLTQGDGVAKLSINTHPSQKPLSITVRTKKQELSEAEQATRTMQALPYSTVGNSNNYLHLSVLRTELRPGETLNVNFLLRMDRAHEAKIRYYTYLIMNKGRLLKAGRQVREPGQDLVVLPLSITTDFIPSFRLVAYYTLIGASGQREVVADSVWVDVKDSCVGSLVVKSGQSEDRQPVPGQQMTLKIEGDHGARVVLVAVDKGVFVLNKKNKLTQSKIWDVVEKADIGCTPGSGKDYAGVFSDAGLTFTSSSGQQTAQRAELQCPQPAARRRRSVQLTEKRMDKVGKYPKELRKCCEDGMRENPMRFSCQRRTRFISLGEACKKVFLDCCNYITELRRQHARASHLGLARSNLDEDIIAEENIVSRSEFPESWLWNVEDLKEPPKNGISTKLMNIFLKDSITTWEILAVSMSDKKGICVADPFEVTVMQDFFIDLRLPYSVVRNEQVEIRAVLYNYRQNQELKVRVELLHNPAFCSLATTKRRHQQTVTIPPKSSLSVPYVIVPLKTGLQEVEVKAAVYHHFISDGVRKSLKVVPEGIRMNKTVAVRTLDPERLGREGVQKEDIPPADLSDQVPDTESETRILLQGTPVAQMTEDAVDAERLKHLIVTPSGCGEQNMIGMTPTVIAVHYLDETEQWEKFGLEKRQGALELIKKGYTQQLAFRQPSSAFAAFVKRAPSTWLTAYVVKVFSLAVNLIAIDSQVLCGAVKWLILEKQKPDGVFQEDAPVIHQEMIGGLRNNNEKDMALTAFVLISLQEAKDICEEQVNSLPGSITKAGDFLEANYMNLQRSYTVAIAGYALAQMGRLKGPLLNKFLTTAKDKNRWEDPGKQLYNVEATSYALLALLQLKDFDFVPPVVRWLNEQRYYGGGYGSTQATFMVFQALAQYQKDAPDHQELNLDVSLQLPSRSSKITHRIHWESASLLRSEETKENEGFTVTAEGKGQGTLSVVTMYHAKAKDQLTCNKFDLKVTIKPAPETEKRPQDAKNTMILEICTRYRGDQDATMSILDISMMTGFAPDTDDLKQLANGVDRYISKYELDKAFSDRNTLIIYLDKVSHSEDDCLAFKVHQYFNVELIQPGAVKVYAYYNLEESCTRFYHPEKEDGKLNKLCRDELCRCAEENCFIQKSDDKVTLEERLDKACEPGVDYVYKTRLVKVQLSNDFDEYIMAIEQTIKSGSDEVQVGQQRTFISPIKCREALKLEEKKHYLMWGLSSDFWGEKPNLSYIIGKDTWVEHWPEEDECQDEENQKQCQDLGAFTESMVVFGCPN
# Experiment: SPR (Biacore T200), human C3 immobilised, peptide injected, 1:1 fit
# Procedure: Surface plasmon resonance (SPR) was used to characterize peptides with respect to their binding affinity (Kd) for C3. Human C3 (Complement tech cat #A113c) was immobilised on individual flow cells of CM5 sensor chips (GE Healthcare) using standard amine coupling to a density of approximately 3000 resonance units (RU) in a buffer consisting of 10 mM phosphate pH 7.4, 150 mM NaCl, 0.05% Tween20.
# For interaction experiments a multi-cycle experiment approach was used and performed using a BiacoreT200™ instrument (GE Healthcare) at 25° C. Peptides were injected in increasing concentration series (6-8 different concentrations) for 60-120 sat a flow rate of 30 µL/min in a buffer consisting of 10 mM Tris buffer at pH 7.4, with 150 mM NaCl and 0.05% Tween20. This was followed by a dissociation period for up to 10 min. The C3 surface was regenerated between runs by a 45 s injection of 3 M MgCl_2.
row,Kd [nM],Binder
1,11,B1
2,63,B2
3,9.8,B3
4,28,B4
5,8.2,B5
6,11,Ac-SEFCI[Trp(1-Me)]QDWGEHRC[Sar]EGE-{AEEA-AEEA-K(γGlu-Gly-γGlu-17-carboxy-heptadecanoyl)-NH2} (disulfide 4-14) [Compound 123]
7,31,Ac-SEFCI[Trp(1-Me)]QEWGEHRC[Sar]EGE-{AEEA-AEEA-K(γGlu-Gly-γGlu-17-carboxy-heptadecanoyl)-NH2} (disulfide 4-14) [Compound 124]
8,71,Ac-SEYCI[Trp(1-Me)]QEWGEHRC[Sar]EGE-{AEEA-AEEA-K(γGlu-Gly-γGlu-17-carboxy-heptadecanoyl)-NH2} (disulfide 4-14) [Compound 125]
9,24,Ac-SEYCI[Trp(1-Me)]QDWGEHRC[Sar]EGE-{AEEA-AEEA-K(γGlu-Gly-γGlu-17-carboxy-heptadecanoyl)-NH2} (disulfide 4-14) [Compound 117]
10,8.5,Ac-SEFCI[Trp(1-Me)]QDWGEHRC[Sar]EGE-{AEEA-AEEA-K(γGlu-Gly-γGlu-15-carboxy-pentadecanoyl)-NH2} (disulfide 4-14) [Compound 127]
11,30,B6
12,5.2,B7
13,6.5,"Ac-SEFCI[Trp(1-Me)]QDWGEHRC[Sar]EGE-{AEEA-AEEA-K(γGlu-Gly-γGlu-19-carboxy-nonadecanoyl)-NH2} (disulfide 4-14, also called comp 128) [Compound 128]"

# Biological target: T1, Human C3 (Complement tech cat #A113c)
# Experiment: cell-based or functional assay
row,Binder,inhibition of hemolysis IC50 [nM]
1,B1,< 100
2,B2,< 500
3,B3,< 100
4,B4,< 250
5,B5,< 100
6,Ac-SEFCI[Trp(1-Me)]QDWGEHRC[Sar]EGE-{AEEA-AEEA-K(γGlu-Gly-γGlu-17-carboxy-heptadecanoyl)-NH2} (disulfide 4-14) [Compound 123],< 100
7,Ac-SEFCI[Trp(1-Me)]QEWGEHRC[Sar]EGE-{AEEA-AEEA-K(γGlu-Gly-γGlu-17-carboxy-heptadecanoyl)-NH2} (disulfide 4-14) [Compound 124],< 100
8,Ac-SEYCI[Trp(1-Me)]QEWGEHRC[Sar]EGE-{AEEA-AEEA-K(γGlu-Gly-γGlu-17-carboxy-heptadecanoyl)-NH2} (disulfide 4-14) [Compound 125],< 500
9,Ac-SEYCI[Trp(1-Me)]QDWGEHRC[Sar]EGE-{AEEA-AEEA-K(γGlu-Gly-γGlu-17-carboxy-heptadecanoyl)-NH2} (disulfide 4-14) [Compound 117],< 250
10,Ac-SEFCI[Trp(1-Me)]QDWGEHRC[Sar]EGE-{AEEA-AEEA-K(γGlu-Gly-γGlu-15-carboxy-pentadecanoyl)-NH2} (disulfide 4-14) [Compound 127],< 100
11,B6,< 250
12,B7,< 100
13,"Ac-SEFCI[Trp(1-Me)]QDWGEHRC[Sar]EGE-{AEEA-AEEA-K(γGlu-Gly-γGlu-19-carboxy-nonadecanoyl)-NH2} (disulfide 4-14, also called comp 128) [Compound 128]",< 100
